Experimental data reported in the supplement of paper PMC10065799, “High-throughput profiling of sequence recognition by tyrosine kinases and SH2 domains using bacterial peptide display” (eLife, 2023).

Experiments:
c-Src SH2 = assay: SH2 binding enrichment of the phosphorylated peptide, bacterial display (enrichment ratio); higher = better substrate or ligand; peptides without Tyr show the background
SHP2-C SH2 = assay: as above
Grb2 SH2 = Grb2 SH2 (UniProt P62993); assay: as above
EPHB2 = EPHB2 (UniProt P29323); assay: phosphorylation enrichment, bacterial display (enrichment ratio); higher = better substrate or ligand; peptides without Tyr show the background
c-Src = assay: as above
Fyn = Fyn (UniProt P06241); assay: as above
Fer (mouse) = assay: as above
EPHB1 = EPHB1 (UniProt P54762); assay: as above
Fes = Fes (UniProt P07332); assay: as above
AncSZ = assay: as above
MERTK = MERTK (UniProt Q12866); assay: as above
FGFR1 = FGFR1 (UniProt P11362); assay: as above
Hck = Hck (UniProt P08631); assay: as above
Jak2 = Jak2 (UniProt O60674); assay: as above
c-Abl (mouse) = assay: as above
FGFR3 = FGFR3 (UniProt P22607); assay: as above
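For SH2 binding enrichment of the phosphorylated peptide, bacterial display in this document: peptide library displayed on the E. coli surface as eCPX fusions, selected cells deep-sequenced, score is each peptide's frequency after selection divided by its frequency in the input.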
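For phosphorylation enrichment, bacterial display in this document: 11-residue human phosphosite peptides and single-mutation variants displayed on the E. coli surface, counted by deep sequencing, each peptide's frequency after selection divided by its frequency in the unselected input library; frequency after pTyr selection over input frequency; kinase dosed for 20-30% of maximal phosphorylation in three min.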

Fes, sequence (P07332 whole entry, looked up): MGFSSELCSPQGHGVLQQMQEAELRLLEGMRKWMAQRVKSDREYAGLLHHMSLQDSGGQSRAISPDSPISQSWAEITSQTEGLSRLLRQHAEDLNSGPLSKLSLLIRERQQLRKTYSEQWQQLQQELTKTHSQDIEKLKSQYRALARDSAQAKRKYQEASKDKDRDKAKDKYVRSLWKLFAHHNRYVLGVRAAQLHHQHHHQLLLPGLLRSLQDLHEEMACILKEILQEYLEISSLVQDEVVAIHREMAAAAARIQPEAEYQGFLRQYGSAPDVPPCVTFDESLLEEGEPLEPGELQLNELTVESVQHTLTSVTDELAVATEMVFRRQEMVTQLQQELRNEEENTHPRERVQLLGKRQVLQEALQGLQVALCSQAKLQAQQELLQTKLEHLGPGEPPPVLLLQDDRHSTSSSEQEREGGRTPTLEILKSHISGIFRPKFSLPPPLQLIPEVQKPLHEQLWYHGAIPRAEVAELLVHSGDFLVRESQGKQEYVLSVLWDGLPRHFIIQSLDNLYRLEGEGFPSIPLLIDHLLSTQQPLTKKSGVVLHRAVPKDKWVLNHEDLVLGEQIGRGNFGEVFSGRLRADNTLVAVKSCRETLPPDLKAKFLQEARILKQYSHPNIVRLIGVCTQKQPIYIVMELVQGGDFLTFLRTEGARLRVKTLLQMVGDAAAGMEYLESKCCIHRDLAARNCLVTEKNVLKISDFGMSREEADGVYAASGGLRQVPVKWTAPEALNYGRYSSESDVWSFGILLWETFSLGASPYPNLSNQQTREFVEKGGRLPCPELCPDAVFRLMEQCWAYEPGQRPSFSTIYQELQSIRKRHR
FGFR1, sequence (P11362 whole entry, looked up): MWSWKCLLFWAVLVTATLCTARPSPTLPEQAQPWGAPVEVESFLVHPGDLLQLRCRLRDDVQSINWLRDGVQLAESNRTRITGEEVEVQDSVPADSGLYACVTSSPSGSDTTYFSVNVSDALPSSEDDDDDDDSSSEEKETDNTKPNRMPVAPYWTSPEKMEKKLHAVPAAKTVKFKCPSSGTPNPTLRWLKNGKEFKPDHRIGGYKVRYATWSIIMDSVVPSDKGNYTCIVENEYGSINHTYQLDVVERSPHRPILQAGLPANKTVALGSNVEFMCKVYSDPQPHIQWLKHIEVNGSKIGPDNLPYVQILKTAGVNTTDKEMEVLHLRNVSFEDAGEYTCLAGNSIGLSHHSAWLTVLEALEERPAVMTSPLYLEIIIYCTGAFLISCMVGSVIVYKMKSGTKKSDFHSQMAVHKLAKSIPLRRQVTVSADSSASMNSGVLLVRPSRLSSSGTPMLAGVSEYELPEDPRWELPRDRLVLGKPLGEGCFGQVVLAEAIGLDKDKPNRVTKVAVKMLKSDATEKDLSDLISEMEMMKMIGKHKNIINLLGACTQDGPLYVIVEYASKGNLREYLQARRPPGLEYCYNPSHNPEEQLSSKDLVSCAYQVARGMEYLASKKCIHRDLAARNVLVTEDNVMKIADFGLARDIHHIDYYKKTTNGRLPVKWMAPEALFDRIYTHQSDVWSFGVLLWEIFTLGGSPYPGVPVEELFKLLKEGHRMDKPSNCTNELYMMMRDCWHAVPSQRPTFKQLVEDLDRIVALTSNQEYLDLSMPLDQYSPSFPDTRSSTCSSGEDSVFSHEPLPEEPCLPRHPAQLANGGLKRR
Grb2 SH2, sequence (P62993 whole entry, looked up): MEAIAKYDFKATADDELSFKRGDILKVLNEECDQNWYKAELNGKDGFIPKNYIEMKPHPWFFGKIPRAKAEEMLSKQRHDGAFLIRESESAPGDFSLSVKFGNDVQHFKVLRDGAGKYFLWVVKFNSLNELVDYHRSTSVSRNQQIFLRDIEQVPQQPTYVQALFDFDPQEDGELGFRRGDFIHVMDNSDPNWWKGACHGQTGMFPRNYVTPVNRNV
Hck, sequence (P08631 whole entry, looked up): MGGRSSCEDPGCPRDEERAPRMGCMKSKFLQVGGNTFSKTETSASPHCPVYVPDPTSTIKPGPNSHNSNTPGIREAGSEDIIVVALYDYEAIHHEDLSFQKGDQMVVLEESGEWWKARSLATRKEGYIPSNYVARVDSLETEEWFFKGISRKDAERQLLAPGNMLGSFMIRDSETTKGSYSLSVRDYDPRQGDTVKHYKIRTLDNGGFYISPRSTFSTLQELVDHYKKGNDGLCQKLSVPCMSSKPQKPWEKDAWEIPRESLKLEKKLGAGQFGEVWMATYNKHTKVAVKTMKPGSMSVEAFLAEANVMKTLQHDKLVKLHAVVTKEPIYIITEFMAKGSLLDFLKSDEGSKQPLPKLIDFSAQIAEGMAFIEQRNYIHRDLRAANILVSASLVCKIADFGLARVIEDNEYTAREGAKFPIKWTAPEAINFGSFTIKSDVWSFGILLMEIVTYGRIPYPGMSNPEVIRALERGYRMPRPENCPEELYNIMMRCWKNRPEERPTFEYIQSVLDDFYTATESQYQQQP
Fyn, sequence (P06241 whole entry, looked up): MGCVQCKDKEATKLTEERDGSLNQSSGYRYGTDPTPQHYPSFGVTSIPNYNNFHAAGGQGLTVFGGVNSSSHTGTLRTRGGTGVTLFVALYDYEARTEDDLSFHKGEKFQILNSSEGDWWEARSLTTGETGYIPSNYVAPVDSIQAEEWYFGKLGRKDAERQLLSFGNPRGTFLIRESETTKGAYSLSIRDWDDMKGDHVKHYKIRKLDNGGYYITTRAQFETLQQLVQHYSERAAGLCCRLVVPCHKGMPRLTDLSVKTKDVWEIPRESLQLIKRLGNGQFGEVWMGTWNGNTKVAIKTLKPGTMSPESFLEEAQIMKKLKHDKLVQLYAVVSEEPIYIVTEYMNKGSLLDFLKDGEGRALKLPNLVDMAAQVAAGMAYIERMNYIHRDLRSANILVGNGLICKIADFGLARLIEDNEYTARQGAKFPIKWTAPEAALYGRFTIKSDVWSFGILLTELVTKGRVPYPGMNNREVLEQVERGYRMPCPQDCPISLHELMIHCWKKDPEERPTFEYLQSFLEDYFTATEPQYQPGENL
EPHB2, sequence (P29323 whole entry, looked up): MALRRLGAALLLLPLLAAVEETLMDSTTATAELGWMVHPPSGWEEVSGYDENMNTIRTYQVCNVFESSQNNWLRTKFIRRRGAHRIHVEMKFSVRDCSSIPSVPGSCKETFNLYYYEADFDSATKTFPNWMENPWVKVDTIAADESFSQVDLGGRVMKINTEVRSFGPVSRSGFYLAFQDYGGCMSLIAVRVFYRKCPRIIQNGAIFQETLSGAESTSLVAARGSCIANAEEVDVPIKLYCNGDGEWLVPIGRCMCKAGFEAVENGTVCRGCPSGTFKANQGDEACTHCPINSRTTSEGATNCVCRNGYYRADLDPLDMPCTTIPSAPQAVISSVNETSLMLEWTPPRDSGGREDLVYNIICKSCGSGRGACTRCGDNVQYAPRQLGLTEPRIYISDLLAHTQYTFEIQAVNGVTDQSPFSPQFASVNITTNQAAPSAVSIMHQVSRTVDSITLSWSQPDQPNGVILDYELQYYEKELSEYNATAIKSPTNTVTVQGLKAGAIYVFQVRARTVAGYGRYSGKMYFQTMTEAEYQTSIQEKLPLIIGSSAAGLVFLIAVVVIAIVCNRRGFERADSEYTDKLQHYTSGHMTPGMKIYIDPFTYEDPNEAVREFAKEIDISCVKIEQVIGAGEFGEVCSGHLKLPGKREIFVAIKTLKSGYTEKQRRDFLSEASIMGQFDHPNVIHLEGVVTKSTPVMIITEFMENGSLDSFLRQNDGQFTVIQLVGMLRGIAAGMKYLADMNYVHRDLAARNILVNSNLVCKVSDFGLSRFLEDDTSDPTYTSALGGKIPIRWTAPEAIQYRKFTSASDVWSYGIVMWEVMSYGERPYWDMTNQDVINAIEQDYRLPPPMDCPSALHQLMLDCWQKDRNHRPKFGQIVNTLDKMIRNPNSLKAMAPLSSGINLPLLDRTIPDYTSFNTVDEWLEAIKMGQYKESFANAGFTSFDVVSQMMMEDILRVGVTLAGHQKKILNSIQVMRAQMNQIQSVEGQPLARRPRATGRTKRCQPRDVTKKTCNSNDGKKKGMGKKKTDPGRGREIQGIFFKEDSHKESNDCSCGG
FGFR3, sequence (P22607 whole entry, looked up, the tested form may be a part): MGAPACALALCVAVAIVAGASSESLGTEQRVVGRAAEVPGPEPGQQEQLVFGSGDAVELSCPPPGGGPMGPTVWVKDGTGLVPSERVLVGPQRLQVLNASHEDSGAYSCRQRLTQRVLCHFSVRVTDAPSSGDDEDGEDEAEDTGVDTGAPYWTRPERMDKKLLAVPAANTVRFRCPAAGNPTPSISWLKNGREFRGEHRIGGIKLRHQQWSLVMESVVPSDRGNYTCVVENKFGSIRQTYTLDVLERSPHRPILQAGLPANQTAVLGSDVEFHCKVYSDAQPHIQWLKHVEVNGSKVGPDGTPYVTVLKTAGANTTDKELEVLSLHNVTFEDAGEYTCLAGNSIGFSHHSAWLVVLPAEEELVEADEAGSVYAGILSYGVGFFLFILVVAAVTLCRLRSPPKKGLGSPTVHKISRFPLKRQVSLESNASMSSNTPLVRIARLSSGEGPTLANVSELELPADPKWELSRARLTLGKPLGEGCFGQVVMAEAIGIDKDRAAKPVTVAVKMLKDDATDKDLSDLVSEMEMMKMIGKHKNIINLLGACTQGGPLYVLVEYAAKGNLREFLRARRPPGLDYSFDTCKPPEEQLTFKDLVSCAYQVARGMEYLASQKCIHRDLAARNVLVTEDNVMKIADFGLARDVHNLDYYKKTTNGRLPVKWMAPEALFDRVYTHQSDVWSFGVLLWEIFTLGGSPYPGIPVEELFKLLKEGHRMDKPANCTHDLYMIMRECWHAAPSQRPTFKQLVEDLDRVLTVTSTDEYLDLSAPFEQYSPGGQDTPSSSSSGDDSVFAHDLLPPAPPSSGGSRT

| Sequence | SH2 binding enrichment (c-Src SH2) | SH2 binding enrichment (SHP2-C SH2) | SH2 binding enrichment (Grb2 SH2) | phosphorylation enrichment (EPHB2) | phosphorylation enrichment (c-Src) | phosphorylation enrichment (Fyn) | phosphorylation enrichment (Fer (mouse)) | phosphorylation enrichment (EPHB1) | phosphorylation enrichment (Fes) | phosphorylation enrichment (AncSZ) | phosphorylation enrichment (MERTK) | phosphorylation enrichment (FGFR1) | phosphorylation enrichment (Hck) | phosphorylation enrichment (Jak2) | phosphorylation enrichment (c-Abl (mouse)) | phosphorylation enrichment (FGFR3) |
| --- | --- | --- | --- | --- | --- | --- | --- | --- | --- | --- | --- | --- | --- | --- | --- | --- |
| KFVVVYFREID [IL17RB_Y447_YF] | 1.43 | 2.08 | 1.96 | 0.523 | 0.408 | 0.436 | 0.446 | 0.508 | 1.27 | 1.2 | 0.362 | 0.49 | 0.538 | 1.17 | 0.724 | 0.691 |
| KFWREYILSLE [GPC3_Y299_YF] | 0.932 | 1.31 | 1.27 | 0.666 | 0.588 | 0.462 | 0.422 | 0.552 | 1.2 | 0.999 | 0.431 | 0.478 | 0.452 | 0.997 | 0.912 | 0.72 |
| KGELCYMHSRV [ABCD1_Y281_R280C] | 0.632 | 0.883 | 1.31 | 0.581 | 0.402 | 0.505 | 0.449 | 0.597 | 0.757 | 0.813 | 0.563 | 0.479 | 0.485 | 0.568 | 0.43 | 0.682 |
| KGELRYMHSPV [ABCD1_Y281_R285P] | 0.533 | 0.58 | 0.931 | 0.367 | 0.365 | 0.328 | 0.315 | 0.393 | 0.674 | 0.481 | 0.406 | 0.364 | 0.345 | 0.619 | 0.527 | 0.458 |
| KGIQLYDTPYE [SHB_Y297] | 4.71 | 1.1 | 1.15 | 15.6 | 1.24 | 0.891 | 3.26 | 11.3 | 1.04 | 1.5 | 5.25 | 0.564 | 1.84 | 1.13 | 1.13 | 0.695 |
| KGRAGYTTVAV [RET_Y752] | 1.47 | 1.64 | 1.47 | 0.265 | 0.347 | 0.319 | 0.325 | 0.286 | 0.519 | 0.46 | 0.415 | 0.309 | 0.337 | 0.437 | 0.454 | 0.412 |
| KGYRGYSYDDI [TMEM230_Y110] | 3.92 | 0.652 | 0.963 | 0.424 | 0.434 | 0.425 | 0.393 | 0.407 | 0.774 | 0.756 | 0.417 | 0.485 | 0.395 | 0.607 | 0.547 | 0.509 |
| KHCEDYVCSFN [DSC1_Y846_YF] | 0.809 | 0.87 | 1.06 | 0.522 | 0.829 | 0.473 | 0.525 | 0.564 | 1.08 | 1.15 | 0.424 | 0.572 | 0.446 | 1.13 | 0.719 | 0.681 |
| KIVQDYLEKFY [MMP8_Y36_T32I] | 0.504 | 0.812 | 1.02 | 0.735 | 0.449 | 0.452 | 0.428 | 0.557 | 0.975 | 0.885 | 0.483 | 0.521 | 0.47 | 0.719 | 0.579 | 0.595 |
| KKKKQYKGKFL [CASK_Y708_D710G_YF] | 0.515 | 0.916 | 0.685 | 0.549 | 0.638 | 0.532 | 0.439 | 0.447 | 0.526 | 0.617 | 0.533 | 0.485 | 0.523 | 0.535 | 0.547 | 0.579 |
| KKYPDYIQSAM [SGMS2_Y59_I62S] | 0.394 | 0.746 | 0.883 | 0.396 | 0.428 | 0.443 | 0.373 | 0.543 | 0.772 | 0.839 | 0.392 | 0.484 | 0.413 | 0.716 | 0.595 | 0.487 |
| KLMTEYKKRKQ [ARFGEF3_Y2029] | 1.08 | 0.878 | 1.27 | 0.34 | 0.442 | 0.418 | 0.411 | 0.336 | 0.69 | 0.478 | 0.52 | 0.331 | 0.459 | 0.653 | 0.629 | 0.543 |
| KLRMESLSLMH [NCKIPSD_Y660_Y660S] | 0.746 | 0.923 | 1.15 | 0.483 | 0.457 | 0.45 | 0.388 | 0.423 | 0.782 | 0.658 | 0.436 | 0.453 | 0.415 | 0.644 | 0.508 | 0.476 |
| KMMGRYEMYAR [UPB1_Y362_T359M] | 1.11 | 0.826 | 1.29 | 0.551 | 0.414 | 0.333 | 0.302 | 0.374 | 0.711 | 0.711 | 0.543 | 0.5 | 0.51 | 0.966 | 0.367 | 0.529 |
| KNEKVYTRHGV [FLOT1_Y56_S52N] | 0.585 | 0.749 | 0.998 | 0.33 | 0.357 | 0.355 | 0.316 | 0.243 | 0.487 | 0.514 | 0.375 | 0.352 | 0.344 | 0.392 | 0.435 | 0.356 |
| KNRDVSSSDYF [USP24_Y2134_Y2134S] | 0.523 | 0.7 | 0.921 | 0.447 | 0.543 | 0.476 | 0.363 | 0.476 | 0.653 | 0.921 | 0.442 | 0.523 | 0.402 | 0.578 | 0.61 | 0.521 |
| KPGVNYYFQVS | 1.3 | 2 | 1.01 | 0.602 | 0.5 | 0.573 | 0.522 | 0.699 | 1.35 | 1.22 | 0.873 | 2.49 | 0.526 | 1.44 | 0.895 | 2.05 |

| Sequence | SH2 binding enrichment (c-Src SH2) | SH2 binding enrichment (SHP2-C SH2) | SH2 binding enrichment (Grb2 SH2) | phosphorylation enrichment (EPHB2) | phosphorylation enrichment (c-Src) | phosphorylation enrichment (Fyn) | phosphorylation enrichment (Fer (mouse)) | phosphorylation enrichment (EPHB1) | phosphorylation enrichment (Fes) | phosphorylation enrichment (AncSZ) | phosphorylation enrichment (MERTK) | phosphorylation enrichment (FGFR1) | phosphorylation enrichment (Hck) | phosphorylation enrichment (Jak2) | phosphorylation enrichment (c-Abl (mouse)) | phosphorylation enrichment (FGFR3) |
| --- | --- | --- | --- | --- | --- | --- | --- | --- | --- | --- | --- | --- | --- | --- | --- | --- |
| KPIETYFSKNY [PLP1_Y50_L46P] | 0.599 | 0.654 | 0.851 | 0.408 | 0.452 | 0.448 | 0.4 | 0.392 | 0.603 | 0.595 | 0.466 | 0.466 | 0.45 | 0.534 | 0.473 | 0.597 |
| KPRKLYTIKKP [BRD2_Y715_P714L] | 0.972 | 1.19 | 1.07 | 0.444 | 0.442 | 0.375 | 0.413 | 0.374 | 0.496 | 0.608 | 0.408 | 0.328 | 0.452 | 0.532 | 0.456 | 0.427 |
| KPRKPYTIKKP [BRD2_Y715] | 1.9 | 1.73 | 1.85 | 0.765 | 0.75 | 0.608 | 1.19 | 1.03 | 1.94 | 1.28 | 0.644 | 0.864 | 0.924 | 2.95 | 1.98 | 2.2 |
| KQNSLYSFSDH [CCDC82_Y331] | 0.466 | 0.609 | 0.765 | 0.651 | 3.97 | 5.24 | 3.95 | 0.853 | 0.907 | 1 | 9.08 | 0.489 | 3.25 | 0.853 | 0.691 | 0.536 |
| KRGASYILKLA [SERPINB1_Y84] | 1.24 | 1.5 | 1.64 | 0.477 | 0.421 | 0.408 | 0.415 | 0.37 | 1.06 | 0.96 | 0.421 | 0.509 | 0.414 | 0.952 | 0.802 | 0.76 |
| KRLYAYKMLMA [TMC2_Y209_Q205R] | 1.84 | 1.68 | 1.83 | 0.493 | 0.399 | 0.327 | 0.42 | 0.492 | 0.869 | 0.731 | 0.348 | 0.453 | 0.436 | 0.675 | 0.684 | 0.568 |
| KRTFEYEAEKN [DENND2B_Y396_D399E] | 0.535 | 0.703 | 1.06 | 0.431 | 0.518 | 0.501 | 0.436 | 0.43 | 0.769 | 0.771 | 0.505 | 0.511 | 0.463 | 0.798 | 0.675 | 0.527 |
| KSELAYEIFDK [MYOM2_Y1024] | 0.956 | 0.776 | 0.956 | 0.603 | 4.27 | 1.94 | 1 | 0.596 | 1.21 | 2 | 4.45 | 0.65 | 0.951 | 1.24 | 0.915 | 0.782 |
| KSVEEYANCHL [TF_Y593_P589S] | 1.14 | 0.782 | 1.14 | 0.429 | 0.408 | 0.458 | 0.466 | 0.482 | 0.85 | 0.756 | 0.521 | 0.475 | 0.486 | 0.688 | 0.628 | 0.666 |
| KSVLVYRNGDP [DCDC2_Y22] | 0.622 | 0.829 | 0.972 | 0.401 | 0.4 | 0.426 | 0.435 | 0.431 | 0.617 | 0.539 | 0.355 | 0.362 | 0.405 | 0.55 | 0.446 | 0.449 |
| KTNVSYFGALD [CACNB4_Y103_C104F] | 0.443 | 0.63 | 0.847 | 0.43 | 0.438 | 0.554 | 0.464 | 0.438 | 0.848 | 0.789 | 0.426 | 0.509 | 0.484 | 0.653 | 0.59 | 0.634 |
| KTSGNYLAVTG [WDR19_Y28] | 0.427 | 0.654 | 0.824 | 0.517 | 0.42 | 0.536 | 0.404 | 0.974 | 0.57 | 0.573 | 0.757 | 0.5 | 0.454 | 0.449 | 0.445 | 0.457 |
| KVGRVYLFLQP [ITGA2B_Y360_E355K] | 0.48 | 0.724 | 0.843 | 0.522 | 0.362 | 0.375 | 0.492 | 0.558 | 1.2 | 1.02 | 0.391 | 0.404 | 0.462 | 0.983 | 0.75 | 0.768 |
| KVKPIYFHTQG [AR_Y916] | 1.37 | 1.82 | 1.59 | 0.422 | 0.522 | 0.371 | 0.28 | 0.358 | 0.708 | 0.645 | 0.356 | 0.468 | 0.385 | 0.53 | 0.578 | 0.507 |
| KVKPIYLHTQG [AR_Y916_F917L] | 1.65 | 1.84 | 1.71 | 0.457 | 0.402 | 0.405 | 0.438 | 0.496 | 0.728 | 0.687 | 0.54 | 0.441 | 0.39 | 0.61 | 0.736 | 0.612 |
| KVNKIYHPDFI [LIG3_Y767_Y768H] | 0.494 | 0.999 | 0.889 | 0.417 | 0.43 | 0.417 | 0.395 | 0.39 | 0.627 | 0.542 | 0.443 | 0.398 | 0.488 | 0.574 | 0.473 | 0.539 |
